# Assay results: US20100092465A1, “TREATMENT OF GRAFT-VERSUS-HOST DISEASE” (priority 2006, published 2010)
# Several values for one entry are separate records, joined by “and”; a condition that tells them apart may be missing. Equal entries are not always repeated.
# T1: muIL-27 (Mus musculus, UniProt O35228+Q8K3I6)
# T1 sequence (O35228 19-228): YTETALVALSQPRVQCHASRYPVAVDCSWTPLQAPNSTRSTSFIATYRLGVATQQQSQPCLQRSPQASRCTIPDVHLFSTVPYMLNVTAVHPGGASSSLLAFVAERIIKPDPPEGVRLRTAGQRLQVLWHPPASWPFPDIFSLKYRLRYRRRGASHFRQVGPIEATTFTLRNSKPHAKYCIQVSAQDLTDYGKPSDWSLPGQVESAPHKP
# T1 sequence (Q8K3I6 29-234): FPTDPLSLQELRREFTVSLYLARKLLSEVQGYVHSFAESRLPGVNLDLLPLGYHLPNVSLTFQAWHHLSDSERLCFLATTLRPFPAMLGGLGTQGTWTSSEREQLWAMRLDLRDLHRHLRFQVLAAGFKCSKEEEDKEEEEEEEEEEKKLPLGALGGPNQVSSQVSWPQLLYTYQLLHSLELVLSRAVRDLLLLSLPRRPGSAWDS
# T2: huIL-27 (Homo sapiens, UniProt Q14213+Q8NEV9)
# T2 sequence (Q14213 21-229): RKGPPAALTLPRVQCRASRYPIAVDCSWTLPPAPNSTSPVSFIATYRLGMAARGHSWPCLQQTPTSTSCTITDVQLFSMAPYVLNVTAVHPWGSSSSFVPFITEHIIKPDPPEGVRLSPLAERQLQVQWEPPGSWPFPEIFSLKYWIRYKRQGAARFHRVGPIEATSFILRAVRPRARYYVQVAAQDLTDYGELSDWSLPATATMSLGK
# T2 sequence (Q8NEV9 29-243): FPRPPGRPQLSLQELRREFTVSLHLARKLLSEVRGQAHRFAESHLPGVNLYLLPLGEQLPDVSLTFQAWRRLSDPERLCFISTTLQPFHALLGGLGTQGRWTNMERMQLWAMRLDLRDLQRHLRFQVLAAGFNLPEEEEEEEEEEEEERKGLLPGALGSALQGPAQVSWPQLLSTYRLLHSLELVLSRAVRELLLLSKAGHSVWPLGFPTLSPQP
# T3: mouse IL-27 (Mus musculus, UniProt O35228+Q8K3I6)
# T3 sequence (O35228+Q8K3I6 with tags, fused parts or gaps): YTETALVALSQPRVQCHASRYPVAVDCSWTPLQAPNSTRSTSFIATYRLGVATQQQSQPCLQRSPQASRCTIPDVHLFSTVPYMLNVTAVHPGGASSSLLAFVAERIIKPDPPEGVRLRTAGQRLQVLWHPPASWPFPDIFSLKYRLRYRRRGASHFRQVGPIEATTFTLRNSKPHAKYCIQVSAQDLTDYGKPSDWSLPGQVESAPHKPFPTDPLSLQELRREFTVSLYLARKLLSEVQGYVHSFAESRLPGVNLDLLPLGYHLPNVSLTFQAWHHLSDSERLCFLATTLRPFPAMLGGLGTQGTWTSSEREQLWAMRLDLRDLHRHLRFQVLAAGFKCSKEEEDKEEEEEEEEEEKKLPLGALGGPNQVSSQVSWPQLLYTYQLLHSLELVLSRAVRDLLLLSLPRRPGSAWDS
# T4: mouse ligand (single-chain IL27) (Mus musculus, UniProt O35228+Q8K3I6)
# T4 construct: amino-terminal peptide tag (FLAG in lot A1426F) (N)
# T4 sequence (O35228+Q8K3I6 with tags, fused parts or gaps): T3 sequence (O35228+Q8K3I6 with tags, fused parts or gaps)
# B1: IL-27RAm(mFc1): fusion protein comprising the extracellular domain of mouse IL27RA and a wild type BALB/c mouse gamma2a constant region Fc tag (protein)
# chain: TRPHGSPGPLQCYSVGPLGILNCSWEPLGDLETPPVLYHQSQKYHPNRVWEVKVPSKQSWVTIPREQFTMADKLLIWGTQKGRPLWSSVSVNLETQMKPDTPQIFSQVDISEEATLEATVQWAPPVWPPQKVLICQFRYKECQAETWTRLEPQLKTDGLTPVEMQNLEPGTCYQVSGRCQVENGYPWGEWSSPLSFQTPFLDPEDVWVSGTVCETSGKRAALLVWKDPRPCVQVTYTVWFGAGDITTTQEEVPCCKSPVPAWMEWAVVSPGNSTSWVPPTNLSLVCLAPESAPCDVGVSSADGSPGIKVTWKQGTRKPLEYVVDWAQDGDSLDKLNWTRLPPGNLSTLLPGEFKGGVPYRITVTAVYSGGLAAAPSVWGFREELVPLAGPAVWRLPDDPPGTPVVAWGEVPRHQLRGQATHYTFCIQSRGLSTVCRNVSSQTQTATLPNLHLGSFKLWVTVSTVAGQGPPGPNLSLHLPDNRIRWK
# Tests used:
# [1] = biological target: T1, muIL-27; experiment: Phospho-STAT3 neutralization assay, total human PBMCs, muIL-27; assay type: cell-based; details: ligand muIL-27 at EC90
# Excerpt: (§1) Whole mouse spleens were harvested from C57 B1/6 mice and washed two times with 1×PBS before being plated out at 2×10^5 cells/well in assay media (RPMI 1640 plus 10% fetal bovine serum) in 96-well, round-bottom tissue culture plates. Total human PBMC (peripheral blood mononuclear cells) were thawed from a frozen vial collected from a leukapherisis donation and washed two times with 1×PBS before being plated out at 10^6 cells/well in assay media in 96-well, round-bottom tissue culture plates. […] Following pre-incubation, treatments were added to the plates containing the cells and incubated together at 37° C. for 15 minutes.
# (§2) Following incubation, cells were washed with ice-cold wash buffer (BIO-PLEX Cell Lysis Kit, BIO-RAD Laboratories, Hercules, Calif.) and put on ice to stop the reaction according to manufacturer's instructions. […]
# (§3) Capture beads (BIO-PLEX Phospho-Stat3 Assay, BIO-RAD Laboratories) were combined with 50 μL of 1:1 diluted lysates and added to a 96-well filter plate according to manufacture's instructions (BIO-PLEX Phosphoprotein Detection Kit, BIO-RAD Laboratories). […] After the final wash, beads were resuspended in 125 μL/well of bead suspension buffer, shaken for 30 seconds, and read on an array reader (BIO-PLEX, BIO-RAD Laboratories) according to the manufacture's instructions. Data were analyzed using analytical softward (BIO-PLEX MANAGER 3.0, BIO-RAD Laboratories). […]
# [2] = biological target: T2, huIL-27; experiment: Phospho-STAT3 neutralization assay, mouse spleens, huIL-27; assay type: cell-based; details: Mouse Spleens; ligand huIL-27 at EC90
# Excerpt: as §1, §2, §3
# [3] = biological target: T2, huIL-27; experiment: Phospho-STAT3 neutralization assay, total human PBMCs, huIL-27; assay type: cell-based; details: Total Human PBMCs; ligand huIL-27 at EC90
# Excerpt: as §1, §2, §3
# [4] = Pharmacokinetics of soluble receptors in female C57B1/6 mice; assay type: in vivo, mouse; details: for clearance from the circulation, comparison in words: mouse Fc1 fusion versus human Fc5 fusion
# Method: Studies were performed to evaluate the pharmacokinetics of the mouse (IL-27RAm(mFc1)) and human (IL-27RA-Fc5) soluble receptors in female C57B1/6 mice.
# Serum was generated from each sample and analyzed by a qualified enzyme-linked immunosorbant assay (ELISA). The resulting mean serum concentration versus time profiles were then subjected to noncompartmental pharmacokinetic analyses. The following pharmacokinetic parameters were calculated: C0 and Cmax (extrapolated concentration at time zero and maximum serum concentration, respectively), Tmax (time to achieve maximum concentration), t1/2 λz (terminal half-life), AUC0-t (area under the concentration versus time curve from time zero to the last measurable time point), AUCINF (area under the concentration versus time curve extrapolated to infinity), Cl or Cl/F (clearance or clearance divided by bioavailable fraction, respectively), VSS or VZ/F (steady state volume of distribution or volume of distribution divided by the bioavailable fraction, respectively), and F (bioavailable fraction).
# [5] = biological target: T3, mouse IL-27; experiment: IL-27 inhibition of IL-2 production neutralized by IL-27RA Fc; assay type: cell-based
# Method: For testing of the soluble receptor, single-chain mouse IL-27 (10 ng/ml) was preincubated for 30 minutes at 37 degrees C. with either IL27RAm(mFc1) (10.0 and 5.0 .micro.g/ml), IL27RA-Fc5, mouse Fc1 protein (10.0 and 5.0 .micro.g/ml), human Fc5 protein (10.0 and 5.0 .micro.g/ml), or no recombinant protein in wells of the anti-CD3 coated plates. 4×10^5 CD4^+ CD62L high cells were added to the wells. Duplicate plates were set up for all experimental conditions. The plates were then cultured at 37 degrees for up to 72 hours. Cell supernatants were collected from one set of plates at 48 hours and from the duplicate set of plates at 72 hours. The supernatants were stored frozen at −80° C.
# [6] = biological target: T4, mouse ligand (single-chain IL27); experiment: SPR kinetics of soluble receptors with mouse IL27 ligand; details: binding with mouse ligand; gp130 not included
# Method: Kinetic rate and affinity constant values for the mouse (IL27RAm(mFc1), Example 3) and human (IL27RA-Fc5, Example 4) soluble receptors were obtained by surface plasmon resonance (SPR) using an automated instrument (BIACORE 3000; Biacore International AB, Uppsala, Sweden). The mouse soluble receptor was tested against mouse ligand (lot A1418F), and the human soluble receptor was tested against both mouse (A1426F) and human (A1534F) ligands. For determination of the kinetic rate constants for the receptor-ligand interactions, the gp130 molecule was not included as part of the receptor complex.
# The IL27 ligands used in this study were single-chain molecules comprising EBI3 connected by its C-terminus to the N-terminus of IL-27 p28 via a polypeptide linker. Each of the ligands included an amino-terminal peptide tag.
# For the mouse IL27RA study, the soluble receptor was captured onto the chip surface by an isotype-specific anti-mouse Fc antibody (obtained from Jackson ImmunoResearch Laboratories, Inc., West Grove, Pa.) covalently immobilized to the chip (BIACORE CM5 chip) using the standard amine coupling protocol specified by the instrument manufacturer. […]
# All data were assessed using software provided with the instrument (BIACORE Evaluation software v. 3.2). […]
# [7] = biological target: T1, muIL-27; experiment: Phospho-STAT3 neutralization assay, mouse spleens, muIL-27; assay type: cell-based; details: ligand muIL-27 at EC90
# Excerpt: as §1, §2, §3
molecule,measurement,setting,value
B1,IC50,[1],4.83 nM
same,IC50,[2],9.3 nM
same,IC50,[3],1370 nM
same,AUC0-24,"[4]; IP, 100 μg",98.2 µg·h/mL
same,AUCINF,"[4]; IP, 100 μg",102 µg·h/mL
same,Cl/F,"[4]; IP, 100 μg",0.983 mL/h
same,Tmax,"[4]; IP, 100 μg",1 h
same,t1/2 λz,"[4]; IP, 100 μg",5.17 h
same,Cmax,"[4]; IP, 100 μg, serum",13200 ng/mL
same,AUC0-24,"[4]; IV, 100 μg",157 µg·h/mL
same,AUCINF,"[4]; IV, 100 μg",162 µg·h/mL
same,Cl,"[4]; IV, 100 μg",0.618 mL/h
same,Vss,"[4]; IV, 100 μg",3.05 mL
same,t1/2 λz,"[4]; IV, 100 μg",5.25 h
same,Co,"[4]; IV, 100 μg, serum",36.2 µg/mL
same,AUC0-24,"[4]; SC, 100 μg",56.5 µg·h/mL
same,Tmax,"[4]; SC, 100 μg",3 h
same,Cmax,"[4]; SC, 100 μg, serum",7950 ng/mL
same,"clearance from the circulation, comparison in words",[4],more rapid clearance
same,"clearance from the circulation, comparison in words",[4]; listed as Zcytor1 fragment polypeptide joined to a wild-type murine immunoglobulin gamma2a,rapidly cleared from the circulation
same,IL-2 concentration,"[5]; 48 hr, protein conc. 5 (µg/ml; Fc controls in molar equiv.) + IL-27 10 ng/ml",4021.15 pg/mL
same,IL-2 concentration,"[5]; 48 hr, protein conc. 10 (µg/ml; Fc controls in molar equiv.) + IL-27 10 ng/ml, listed as mIL-27RA",5215.59 pg/mL and 4922.26 pg/mL
same,IL-2 concentration,"[5]; 72 hr, protein conc. 5 (µg/ml; Fc controls in molar equiv.) + IL-27 10 ng/ml",5744.95 pg/mL
same,IL-2 concentration,"[5]; 72 hr, protein conc. 10 (µg/ml; Fc controls in molar equiv.) + IL-27 10 ng/ml, listed as mIL-27RA",6704.62 pg/mL and 12186.7 pg/mL
same,inhibition (partial block) of the ability of mouse IL-27 to inhibit IL-2 production,[5]; naïve CD4 T cells,~50%
same,ka,[6],1e+07 M⁻¹ s⁻¹
same,kd,[6],0.0012 s⁻¹
same,IC50,[7],0.18 nM
